The source of these data is publication PMC12350170, “Structural basis for the synergistic assembly of the snRNA export complex” (Nature Structural & Molecular Biology, 2025).

Sequences and labels used below:
B1: MBP-PHAX103–196 (wild type) [human] / Human nuclear cap-binding complex (CBC): CBP80ΔNLS with CBP20 [human] (parent)
chain 1: SQKPPVAGGKKINNIWGAVLQEQNQDAVATELGILGMEGTIDRSRQSETYNYLLAKKLRKESQEHTKDLDKELDEYMHGGKKMGSKEEENGQGH
chain 2: KTSDANETEDHLESLICKVGEKSACSLESNLEGLAGVLEADLPNYKSKILRLLCTVARLLPEKLTIYTTLVGLLNARNYNFGGEFVEAMIRQLKESLKANNYNEAVYLVRFLSDLVNCHVIAAPSMVAMFENFVSVTQEEDVPQVRRDWYVYAFLSSLPWVGKELYEKKDAEMDRIFANTESYLKRRQKTHVPMLQVWTADKPHPQEEYLDCLWAQIQKLKKDRWQERHILRPYLAFDSILCEALQHNLPPFTPPPHTEDSVYPMPRVIFRMFDYTDDPEGPVMPGSHSVERFVIEENLHCIIKSHWKERKTCAAQLVSYPGKNKIPLNYHIVEVIFAELFQLPAPPHIDVMYTTLLIELCKLQPGSLPQVLAQATEMLYMRLDTMNTTCVDRFINWFSHHLSNFQFRWSWEDWSDCLSQDPESPKPKFVREVLEKCMRLSYHQRILDIVPPTFSALCPANPTCIYKYGDESSNSLPGHSVALCLAVAFKSKATNDEIFSILKDVPNPNQDDDDDEGFSFNPLKIEVFVQTLLHLAAKSFSHSFSALAKFHEVFKTLAESDEGKLHVLRVMFEVWRNHPQMIAVLVDKMIRTQIVDCAAVANWIFSSELSRDFTRLFVWEILHSTIRKMNKHVLKIQKELEEAKEKLARQHKRRSDDDDRSSDRKDGVLEEQIERLQEKVESAQSEQKNLFLVIFQRFIMILTEHLVRCETDGTSVLTPWYKNCIERLQQIFLQHHQIIQQYMVTLENLLFTAELDPHILAVFQQFCALQA
chain 3: MSGGLLKALRSDSYVELSQYRDQHFRGDNEEQEKLLKKSCTLYVGNLSFYTTEEQIYELFSKSGDIKKIIMGLDKMKKTACGFCFVEYYSRADAENAMRYINGTRLDDRIIRTDWDAGFKEGRQYGRGRSGGQVRDEYRQDYDAGRGGYGKLAQNQ

Variants of B1 are the subject of the first assay. Kind of assay: ITC. The note with it: CBC pre-bound to the cap analog m7GpppG.
Broadly, the Kd is a measure of binding affinity in units of concentration. Consider chain 1 SQKPPVAGGKKINNIWGAVLQEQNQDAVATELGILGMEGTIDRSEQSETENELLAKKLRKESQEHTKDLDKELDEYMHGGKKMGSKEEENGQGH [chain 1 R45E Y50E Y52E], for which the Kd is 1970 nM.

The assay is the same for the next values; noted with them: CBC pre-bound to the cap analog m7GpppG (row 'CBC-m7GpppG + PHAX103–196 (R147E, Y152E, Y154E)').
In the case of chain 1 SQKPPVAGGKKINNIWGAVLQEQNQDAVATELGILGMEGTIDRSEQSETENELLAKKLRKESQEHTKDLDKELDEYMHGGKKMGSKEEENGQGH [chain 1 R45E Y50E Y52E], the Kd amounted to 1970 nM.
